Results taken from PMC4225485, “The PHD1 finger of KDM5B recognizes unmodified H3K4 during the demethylation of histone H3K4me2/3 by KDM5B” (Protein & Cell, 2014).
Positions count from the first letter of the chain named.

What was measured:
PHD1KDM5B (306–360 aa) = target: T1, PHD1KDM5B (306–360 aa) (Homo sapiens, UniProt Q9UGL1); test: ITC binding of H3 peptides to PHD1KDM5B
T1 construct: PHDKDM5B (residues 306–360 aa); GST (N, cleaved yes); made in house
T1 sequence (Q9UGL1 306-360): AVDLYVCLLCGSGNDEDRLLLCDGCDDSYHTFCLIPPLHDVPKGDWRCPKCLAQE
From the text: The details of the preparation, purification, crystallization and determination of the PHDKDM5B (residues 306–360 aa) X-ray structure were previously described (Guo et al., [2011]). The modified pGEX-6p-1 vectors expressed proteins with the N-terminal GST tag, which is removable by cleavage with a 3C protease, enabling the use of non-tagged proteins in our studies. Only the X-ray structure of free PHD1KDM5B was obtained.
To study the binding affinities in vitro or to construct different NMR samples of the complex, H3K4 peptides without modifications (with the ARTKQTARKS sequence or […] sequence) or with some modifications (H3R2me1, R2 monomethylation; H3R2me2s, R2 symmetric dimethylation; H3R2me2a, R2 asymmetric dimethylation; H3K4me1/2/3, K4 mono-, di-, and tri-methylation; H3K9me1/2/3, K9 mono-, di- and tri-methylation; H3 peptide A1G, R2A, T3V, K4A, Q5E, T6V mutants without any modification) were purchased from GL Biochem Ltd. (Shanghai, China), and their purity was confirmed by HPLC and mass spectrometry.
To investigate whether the PHD1KDM5B finger and its mutants interact with unmodified or methylated H3K4 or H3K4mutants, the binding affinities of PHD1KDM5B or its mutants to H3 peptides were studied. An ITC-200 microcalorimeter (GE Healthcare) was used with a buffer containing 20 mmol/L Tris, 150 mmol/L NaCl, and 1% Triton X-100, pH 7.5 at 25°C. The reference titration of small molecules in the buffer was subtracted from the experimental data, and the data were fitted using the Origin 7.0 (OriginLab Corporation) software.

[1] = target: PHD1 finger of KDM5B (residues 306-360) (UniProt Q9UGL1); test: ITC; ITC-200, 20 mmol/L Tris, 150 mmol/L NaCl, 1% Triton X-100, pH 7.5, 25°C
[2] = target: T2, PHD1_(KDM5B) L326A mutant (UniProt Q9UGL1 306-360, L326A); test: as above; details: both partners purified
T2 construct: also called PHD1 L326A; source: recombinant from modified pGEX-6p-1, site-directed mutagenesis; not shown: GST, N-terminal, cleaved
T2 sequence (looked up): T1 sequence (Q9UGL1 306-360) with L21A

[3] = target: T3, PHD1 finger of KDM5B (residues 306-360) (UniProt Q9UGL1 306-360); test: as above; details: both partners purified
T3 construct: 15N- or 13C/15N-labelled (M9 medium) for the NMR experiments; GST removed with 3C protease; also called PHD1_(KDM5B); PHD_(KDM5B); source: recombinant from modified pGEX-6p-1, purified; preparation described in Guo et al., 2011; not shown: GST, N-terminal, cleaved
T3 sequence (looked up): T1 sequence (Q9UGL1 306-360)

[4] = target: T4, PHD1_(KDM5B) Y310A mutant (UniProt Q9UGL1 306-360, Y310A); test: as above; details: both partners purified
T4 construct: also called PHD1 Y310A; source: recombinant from modified pGEX-6p-1, site-directed mutagenesis; not shown: GST, N-terminal, cleaved
T4 sequence (looked up): T1 sequence (Q9UGL1 306-360) with Y5A

[5] = target: T5, PHD1_(KDM5B) D308A mutant (UniProt Q9UGL1 306-360, D308A); test: as above; details: both partners purified
T5 construct: also called PHD1 D308A; source: recombinant from modified pGEX-6p-1, site-directed mutagenesis; not shown: GST, N-terminal, cleaved
T5 sequence (looked up): T1 sequence (Q9UGL1 306-360) with D3A

[6] = target: T6, PHD1_(KDM5B) Y310F mutant (UniProt Q9UGL1 306-360, Y310F); test: as above; details: both partners purified
T6 construct: also called PHD1 Y310F; source: recombinant from modified pGEX-6p-1, site-directed mutagenesis; not shown: GST, N-terminal, cleaved
T6 sequence (looked up): T1 sequence (Q9UGL1 306-360) with Y5F

[7] = target: T7, PHD1_(KDM5B) D328A mutant (UniProt Q9UGL1 306-360, D328A); test: as above; details: both partners purified
T7 construct: also called PHD1 D328A; source: recombinant from modified pGEX-6p-1, site-directed mutagenesis; not shown: GST, N-terminal, cleaved
T7 sequence (looked up): T1 sequence (Q9UGL1 306-360) with D23A

[8] = target: T8, PHD1_(KDM5B) E321A mutant (UniProt Q9UGL1 306-360, E321A); test: as above; details: both partners purified
T8 construct: also called PHD1 E321A; source: recombinant from modified pGEX-6p-1, site-directed mutagenesis; not shown: GST, N-terminal, cleaved
T8 sequence (looked up): T1 sequence (Q9UGL1 306-360) with E16A

KDM5B-PHD1-S333A = target: T9, KDM5B-PHD1-S333A (Homo sapiens); test: ITC
T9 chain: T1 sequence (Q9UGL1 306-360) with S28A

KDM5B-PHD1-L324A = target: T10, KDM5B-PHD1-L324A (Homo sapiens); test: ITC
T10 chain: T1 sequence (Q9UGL1 306-360) with L19A

KDM5B-PHD1-D332A = target: T11, KDM5B-PHD1-D332A (Homo sapiens); test: ITC
T11 chain: T1 sequence (Q9UGL1 306-360) with D27A

KDM5B-PHD1-L309A = target: T12, KDM5B-PHD1-L309A (Homo sapiens); test: ITC
T12 chain: T1 sequence (Q9UGL1 306-360) with L4A

KDM5B-PHD1-D322A = target: T13, KDM5B-PHD1-D322A (Homo sapiens); test: ITC
T13 chain: T1 sequence (Q9UGL1 306-360) with D17A

KDM5B-PHD1-Y334A = target: T14, KDM5B-PHD1-Y334A (Homo sapiens); test: ITC
T14 chain: T1 sequence (Q9UGL1 306-360) with Y29A

KDM5B-PHD1-V311A = target: T15, KDM5B-PHD1-V311A (Homo sapiens); test: ITC
T15 chain: T1 sequence (Q9UGL1 306-360) with V6A

KDM5B-PHD1-D345A = target: T16, KDM5B-PHD1-D345A (Homo sapiens); test: ITC
T16 chain: T1 sequence (Q9UGL1 306-360) with D40A

[9] = target: H3K4 (1-10aa) Q5E (Homo sapiens); test: ITC; details: domain or fragment; chains chain
[10] = target: H3K4 (1-10aa) K4A (Homo sapiens); test: ITC; details: domain or fragment; chains chain
[11] = ITC-200, 20 mmol/L Tris, 150 mmol/L NaCl, 1% Triton X-100, pH 7.5, 25°C, H3 peptides residues 1–10, means (± s.d.) of at least three experiments
[12] = Table S1, pH 7.5, 25°C, H3 peptides (1-10aa), N.D. means non-detectable

C[C@H](NC(=O)[C@@H](NC(=O)[C@H](CCC(N)=O)NC(=O)[C@H](CCCCN)NC(=O)[C@@H](NC(=O)[C@H](CCCNC(=N)N)NC(=O)CN)[C@@H](C)O)[C@@H](C)O)C(=O)N[C@@H](CCCNC(=N)N)C(=O)N[C@@H](CCCCN)C(=O)N[C@@H](CO)C(=O)O [H3K4 (1-10aa) A1G]
Kd (PHD1KDM5B (306–360 aa); [11]): 305 ± 11.7 µM

C[C@H](N)C(=O)N[C@@H](CCCNC(=N)N)C(=O)N[C@H](C(=O)N[C@@H](C)C(=O)N[C@@H](CCC(N)=O)C(=O)N[C@H](C(=O)N[C@@H](C)C(=O)N[C@@H](CCCNC(=N)N)C(=O)N[C@@H](CCCCN)C(=O)N[C@@H](CO)C(=O)O)[C@@H](C)O)[C@@H](C)O [H3K4 (1-10aa) K4A]
Kd (PHD1KDM5B (306–360 aa); [12]): 15.9 ± 1.2 µM

C[C@H](N)C(=O)N[C@@H](CCCNC(=N)N)C(=O)N[C@H](C(=O)N[C@@H](CCCCN)C(=O)N[C@@H](CCC(=O)O)C(=O)N[C@H](C(=O)N[C@@H](C)C(=O)N[C@@H](CCCNC(=N)N)C(=O)N[C@@H](CCCCN)C(=O)N[C@@H](CO)C(=O)O)[C@@H](C)O)[C@@H](C)O [H3K4 (1-10aa) Q5E]
Kd (PHD1KDM5B (306–360 aa); [12]): 21.4 ± 1.7 µM

C[C@H](N)C(=O)N[C@@H](C)C(=O)N[C@H](C(=O)N[C@@H](CCCCN)C(=O)N[C@@H](CCC(N)=O)C(=O)N[C@H](C(=O)N[C@@H](C)C(=O)N[C@@H](CCCNC(=N)N)C(=O)N[C@@H](CCCCN)C(=O)N[C@@H](CO)C(=O)O)[C@@H](C)O)[C@@H](C)O [H3K4 (1-10aa) R2A]
Kd (PHD1KDM5B (306–360 aa); [11]): 370 ± 52.1 µM

CC(C)[C@H](NC(=O)[C@H](CCCNC(=N)N)NC(=O)[C@H](C)N)C(=O)N[C@@H](CCCCN)C(=O)N[C@@H](CCC(N)=O)C(=O)N[C@H](C(=O)N[C@@H](C)C(=O)N[C@@H](CCCNC(=N)N)C(=O)N[C@@H](CCCCN)C(=O)N[C@@H](CO)C(=O)O)[C@@H](C)O [H3K4 (1-10aa) T3V]
Kd (PHD1KDM5B (306–360 aa); [11]): 57.1 ± 2.2 µM

CC(C)[C@H](NC(=O)[C@H](CCC(N)=O)NC(=O)[C@H](CCCCN)NC(=O)[C@@H](NC(=O)[C@H](CCCNC(=N)N)NC(=O)[C@H](C)N)[C@@H](C)O)C(=O)N[C@@H](C)C(=O)N[C@@H](CCCNC(=N)N)C(=O)N[C@@H](CCCCN)C(=O)N[C@@H](CO)C(=O)O [H3K4 (1-10aa) T6V]
Kd (PHD1KDM5B (306–360 aa); [11]): 61.3 ± 1.6 µM

H3 peptide A1G mutant (from UniProt P68431 2-11)
Kd [1]: 305 µM

H3 peptide R2A mutant (from UniProt P68431 2-11)
Kd [1]: 370 µM

H3 peptide T3V mutant (from UniProt P68431 2-11)
Kd [1]: 57.1 µM

H3 peptide T6V mutant (from UniProt P68431 2-11)
Kd [1]: 61.3 µM

H3K4 (1-10aa) K4E: unmodified H3 peptide (1-10aa) K4E mutant (ARTEQTARKS; UniProt P68431 2-11, looked up, variant K4E)
KD (PHD1KDM5B (306–360 aa); [11]): non-detectable

H3K4 (1-10aa) R2E: unmodified H3 peptide (1-10aa) R2E mutant (AETKQTARKS; UniProt P68431 2-11, looked up, variant R2E)
KD (PHD1KDM5B (306–360 aa); [11]): too small to detect

B1: unmodified H3K4 peptide (residues 1-10) (peptide)
peptide: ARTKQTARKS
notes: histone H3 N-terminal tail, residues 1-10; also called H3K4me0; H3K4me0 peptide; source: synthetic peptide, bought: GL Biochem Ltd. (Shanghai, China)
Kd [2]: 14.1 ± 0.8 µM
Kd [3]: 6.4 µM
Kd [4]: 28.1 ± 1.3 µM
Kd [5]: 41.7 ± 2.2 µM
Kd [6]: 4.3 ± 0.2 µM
Kd [7]: 182 ± 21.9 µM
Kd [8]: 75.8 ± 5.7 µM
Kd (KDM5B-PHD1-S333A): 12.9 µM
Kd (KDM5B-PHD1-L324A): 15.3 µM
Kd (KDM5B-PHD1-D332A): 11.3 µM
Kd (KDM5B-PHD1-L309A): 8.3 µM
Kd (KDM5B-PHD1-D322A): 10.7 µM
Kd (KDM5B-PHD1-Y334A): 12.6 µM
Kd (KDM5B-PHD1-V311A): 8.2 µM
Kd (KDM5B-PHD1-D345A): 6.7 µM

B2: PHD1 finger of KDM5B (residues 306-360), Q9UGL1 306-360 (protein)
chain: T1 sequence (Q9UGL1 306-360)
Kd [9]: 21.4 µM
Kd [10]: 15.9 µM

B3: tri-methylated H3K4me3 peptide (residues 1-10) (peptide)
peptide: ARTKQTARKS
modifications: trimethyl-lysine at K4
notes: histone H3 N-terminal tail, residues 1-10; source: synthetic peptide, bought: GL Biochem Ltd. (Shanghai, China)
Kd [3]: 104 µM
